Measured values as given in PMC4888461 (Biochemical Journal, 2016).
Like-named read-outs stand apart in the source and are kept apart here.

B1: His-tagged fl-Gremlin-1 (natural protein, human, UniProt O60565 25-184, looked up)
chain: KKKGSQGAIPPPDKAQHNDSEQTQSPQQPGSRNRGRGQGRGTAMPGEEVLESSQEALHVTERKYLKRDWCKTQPLKQTIHEEGCNSRTIINRFCYGQCNSFYIPRHIRKEEGSFQSCSFCKPKKFTTMMVTLNCPELQPPTKKKRVTRVKQCRCISIDLD
B2: His-tagged ΔN-Gremlin-1 (domain or fragment, human, UniProt O60565 72-184, looked up)
chain: EVLESSQEALHVTERKYLKRDWCKTQPLKQTIHEEGCNSRTIINRFCYGQCNSFYIPRHIRKEEGSFQSCSFCKPKKFTTMMVTLNCPELQPPTKKKRVTRVKQCRCISIDLD
B3: untagged ΔN-Gremlin-1 (domain or fragment, human, UniProt O60565 72-184, looked up)
chain: B2 chain
B4: BMP-2 (bone morphogenetic protein 2), wild type (ligand, UniProt P12643 283-396, looked up)
chain: QAKHKQRKRLKSSCKRHPLYVDFSDVGWNDWIVAPPGYHAFYCHGECPFPLADHLNSTNHAIVQTLVNSVNSKIPKACCVPTELSAISMLYLDENEKVVLKNYQDMVVEGCGCR

Tests used:
[1] = target: His-tagged ΔN-Gremlin-1 (human) (UniProt O60565); assay: BLI
[2] = target: His-tagged fl-Gremlin-1 (human) (UniProt O60565); assay: BLI
[3] = target: His-tagged ΔN-Gremlin-1 (human) (UniProt O60565); assay: BLI; remark: listed apart in the source
[4] = target: His-tagged fl-Gremlin-1 (human) (UniProt O60565); assay: BLI; remark: listed apart in the source
[5] = target: the molecule itself; assay: SEC-SAXS
[6] = target: the molecule itself; assay: SEC-MALS
[7] = target: B4; assay: BLI
[8] = target: B4; assay: BLI; remark: listed apart in the source
[9] = target: B4; assay: BLI; remark: listed apart in the source
[10] = target: B1; assay: BLI
[11] = target: B1; assay: BLI; remark: listed apart in the source

BMP-2 mutant # 1 (49 F → A) (ligand)
Kd [1]: 0.0754 µM
Kd [2]: 0.0661 µM
Kd [3]: 0.0778 µM

BMP-2 mutant # 2 (66 L → R) (ligand)
Kd [1]: 0.0447 µM
Kd [2]: 0.0459 µM
Kd [4]: 0.0325 µM

BMP-2 mutant # 3 (49 F → A, 66 L → R) (ligand)
Kd [1]: 0.0959 µM
Kd [2]: 0.0304 µM
Kd [3]: 0.175 µM

BMP-2 mutant # 4 (33 V → T, 34 A → S) (ligand)
Kd [1]: 0.176 µM
Kd [2]: 0.0472 µM

BMP-2 mutant # 5 (98 V → T, 100 L → N) (ligand)
Kd [2]: 0.176 µM
koff [3]: 0.001 s⁻¹
Kd [4]: 0.176 µM

BMP-2 mutant # 6 (90 L→ Q, 92 L → R) (ligand)
Kd [1]: 0.301 µM

B1
stoichiometry N [5]: 2

B2
stoichiometry N [6]: 2
Kd [7]: 0.0167 µM
koff [7]: 0.005 s⁻¹
Kd [8]: 0.0052 µM

B3
Kd [9]: 0.0085 µM

B4
Kd [10]: 0.009 µM
koff [10]: 0.0018 s⁻¹
Kd [11]: 0.0056 µM
